From the Immune Epitope Database (IEDB)

Columns and labels:
HLA-C*15:02 = test: IEDB peptide-MHC binding, purified MHC/direct/fluorescence; filed as Kd, often an IC50 or EC50 that approximates it; ≥ and ≤ were set here for values at or beyond the usual limits of such assays; conditions: source organism: Salmonella enterica subsp. enterica serovar Typhi str. CT18
HLA-A*26:01 = test: IEDB peptide-MHC binding, purified MHC/competitive/fluorescence; filed as Kd, often an IC50 or EC50 that approximates it; ≥ and ≤ were set here for values at or beyond the usual limits of such assays; conditions: source organism: Salmonella enterica subsp. enterica serovar Typhi
HLA-A*29:02 = test: as above; conditions: source organism: Salmonella enterica subsp. enterica serovar Typhi
HLA-B*15:42 = test: as above; conditions: source organism: Salmonella enterica subsp. enterica serovar Typhi
HLA-B*18:01 = test: as above; conditions: source organism: Salmonella enterica subsp. enterica serovar Typhi
HLA-B*27:05 = test: as above; conditions: source organism: Salmonella enterica subsp. enterica serovar Typhi
HLA-B*38:01 = test: as above; conditions: source organism: Salmonella enterica subsp. enterica serovar Typhi
HLA-B*40:01 = test: as above; conditions: source organism: Salmonella enterica subsp. enterica serovar Typhi
HLA-B*44:02 = test: as above; conditions: source organism: Salmonella enterica subsp. enterica serovar Typhi

SVIDHIHYM
Kd (HLA-C*15:02): 0.095 µM | Kd (HLA-A*26:01): 0.00028 µM | Kd (HLA-A*29:02): 0.0012 µM | Kd (HLA-B*15:42): ≥ 5 µM | Kd (HLA-B*18:01): ≥ 20 µM | Kd (HLA-B*27:05): ≥ 20 µM | Kd (HLA-B*38:01): ≥ 20 µM | Kd (HLA-B*40:01): ≥ 20 µM | Kd (HLA-B*44:02): ≥ 20 µM
